We go through two molecules from article PMC4284786, “Refolded scFv Antibody Fragment against Myoglobin Shows Rapid Reaction Kinetics” (International Journal of Molecular Sciences, 2014).

In general, koff refers to the first-order rate constant of dissociation. Higher therefore signals fast dissociation. As usually defined, the Kd is the concentration at which binding is half-saturated. A low value points to higher affinity. As a reminder, the kon is the second-order rate constant of association. Low values mean slower complex formation, high ones faster complex formation.

In assay [1] the target is T1, human myoglobin (human, UniProt P02144 1-154).
T1 chain: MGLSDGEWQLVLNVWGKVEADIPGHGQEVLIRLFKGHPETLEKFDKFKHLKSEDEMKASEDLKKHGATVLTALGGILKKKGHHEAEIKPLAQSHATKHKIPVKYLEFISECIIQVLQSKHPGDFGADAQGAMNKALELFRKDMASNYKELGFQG
As to the kind of experiment: BLI. Background: Biolayer interferometry detects binding as a change in optical thickness at a sensor tip.

The target of assay [2] is T1, human myoglobin. Description: BLI.
The target of assay [3] is T2, equine myoglobin (Equus caballus, UniProt P68082).
T2 construct: myoglobin, equine
T2 sequence (P68082 whole entry): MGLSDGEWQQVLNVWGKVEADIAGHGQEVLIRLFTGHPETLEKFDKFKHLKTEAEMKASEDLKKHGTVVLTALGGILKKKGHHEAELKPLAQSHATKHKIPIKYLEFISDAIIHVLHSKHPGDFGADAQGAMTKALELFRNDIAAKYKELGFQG
Description: ELISA; proteins coated on a 96-well plate (human myoglobin 5 μg/mL in carbonate buffer pH 9.6, 4 °C, 16 h), blocked with BSA in PBST; scFv or premature antibody added for 1 h at 37 °C; scFv detected by anti-6x His tag antibody and HRP-conjugated secondary antibody; scFv 1.9 μg/mL, IgG2-7Ds 0.5 μg/mL in the comparison of proteins. The settings on record: both partners purified.

Assay [4] has as its target T3, conalbumin (Gallus gallus (assumed), UniProt P02789).
T3 construct: conalbumin (ovotransferrin)
The description is as above. As to conditions: both partners purified.

The target in assay [5] is T4, human myoglobin (Homo sapiens, UniProt P02144).
T4 construct: myoglobin, human; also called myoglobin antigen; human myoglobin antigen
As to the kind of experiment: BLI; Octet Red; human myoglobin (5 μg/mL in PBS, pH 7.4) immobilised on APS sensor tip at 30 °C for 900 s, blocked with 0.5% casein in PBS; scFv in casein-PBS; BSA as negative control. As to conditions: both partners purified.

Assay [6] deals with T5, myoglobin peptide, aa 144–154 (Homo sapiens, UniProt P02144).
T5 construct: also called C-terminal region of the myoglobin peptide; source: synthetic peptide
T5 chain: ASNYKELGFQG
As to the kind of experiment: ELISA; synthetic peptides of human myoglobin and human cardiac troponin I; scFv 1.9 μg/mL, IgG2-7Ds 0.5 μg/mL. As to conditions: both partners purified. In general terms: ELISA stands for enzyme-linked immunosorbent assay.

T3 sequence (P02789 20-705): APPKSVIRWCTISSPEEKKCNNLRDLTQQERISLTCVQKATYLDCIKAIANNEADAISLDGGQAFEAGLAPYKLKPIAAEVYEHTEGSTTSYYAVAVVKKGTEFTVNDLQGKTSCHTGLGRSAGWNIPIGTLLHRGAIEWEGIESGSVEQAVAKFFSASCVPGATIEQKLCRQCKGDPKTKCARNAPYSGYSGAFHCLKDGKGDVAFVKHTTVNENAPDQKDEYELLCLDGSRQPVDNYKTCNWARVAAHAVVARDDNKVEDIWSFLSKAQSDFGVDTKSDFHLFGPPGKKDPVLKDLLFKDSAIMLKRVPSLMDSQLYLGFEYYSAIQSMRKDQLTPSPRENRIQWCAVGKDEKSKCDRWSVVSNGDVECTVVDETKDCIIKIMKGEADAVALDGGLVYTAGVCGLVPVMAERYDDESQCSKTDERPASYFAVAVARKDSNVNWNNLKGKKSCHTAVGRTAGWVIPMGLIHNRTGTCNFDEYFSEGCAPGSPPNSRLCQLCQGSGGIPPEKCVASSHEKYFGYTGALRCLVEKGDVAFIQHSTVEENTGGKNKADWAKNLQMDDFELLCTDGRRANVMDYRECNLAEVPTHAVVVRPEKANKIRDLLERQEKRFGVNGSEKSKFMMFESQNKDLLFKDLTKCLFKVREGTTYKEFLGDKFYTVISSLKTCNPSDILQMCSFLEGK

B1: parent premature antibody Myo2-7Ds (whole IgG) (antibody, V domains shown)
VH: QIQLVQSGPELKKPGETVKISCKASGYTFTDYSIHWVRQAPEKGLKWMGWINTETGEPTYADDFTGRFAFSLETSASTAYLQITNLKNEDTATYFCARRFTTTTWFAYWGQGTLVTVSA
VL: DVLMTQTPLSLPVSLGDQASISCRSSQNIVHSSGNTYLEWYLQKPGQSPRFLIYKVSNRFSGVPDRFSGSGSGTDFTLKISRVEAEDLGVYYCFQGSHVPYTFGGGTKLEIK
notes: as the VH of m1; constant part of the heavy chain; as the VL of m1; constant part of the light chain; IgG; The variable regions were the template of the scFv m1; also called IgG2-7Ds; parental antibody
Turning to B1, the koff in assay [1] was determined as 0.0104 s⁻¹. The molecule further had a Kd in assay [2] of 2.89 nM. Also, the binding result in assay [3] is given as “binds”; in assay [4], “no binding (tested: IgG2-7Ds 0.5 μg/mL)”.

B2: refolded scFv-Myo2-7Ds (scFv, V domains shown)
VH: B1 VH
VL: B1 VL
notes: VH of the monoclonal antibody Myo2-7Ds; (GGGGS) x 3 linker between VH and VL; VL of the monoclonal antibody Myo2-7Ds; Plasmid pET28a-scFv-Myo2-7Ds6xH, no pelB leader; A TEV cleavage site stands between the N-terminal His6 tag and the scFv; no cleavage is reported; The abstract gives the order VH-VL, but both printed primers seem to encode ends of a light chain; also called 2-7ds …
As for B2, the Kd in assay [5] worked out at 10 nM; in assay [2] it was 61.1 nM. For the same molecule, the dissociation rate constant (koff) in assay [5] was 0.00629 s⁻¹. In assay [5], this molecule returned a kon of 93200 M⁻¹ s⁻¹. Moreover, the binding result in assay [6] was “binds”; in assay [3], “binds”; in assay [4], “no binding (tested: scFv 1.9 μg/mL)”.
